# From patent US20210292393A1 (published 2021)
# Residue numbers refer to the chain shown, from its start.
# B1: antibody 331 (antibody, V domains shown)
# V domain 1: QITLKESGPTLVKPTETLTLTCSFSGFSLTKTGEAAGWIRQAPGRALEWVTVIFWDDDKRYSPSLQNRISVTKDTSKNQVVLRMTNVARFDTGTYFCWAMGGPGKEYFGQGTLVAVSS
# V domain 2: QSVLTQPPSVSGAPGQRVTISCTGTSSSIGPYSDVHWYQHVSGKAPRLLIFGNSNRPSGVPDRFSGSKSGTSASLVIAGLQAEDEADYYCQSYDSSLGEIYVFGTGTTVTVL
# B2: antibody 326 (antibody, V domains shown)
# VH: QITLKESGPTLVKPTQTLTLTCTFSGFSLNTSGVGVGWIRQPPGKALEWLSLIFWNDDKRYSPSLRSRLTITKDTSKNQVVLTMTNMDPVDTATYFCAHRNSGWSLKFDSWGQGSLVTVSA
# VL: DIQMTQSPSSVSASVGDRVTITCRARQGISSWLVWYQQKPGKAPKLLIFGASSLQSGVPSRFNASGTGTEFTLTISSLQPEDFATYYCQQADSFPITFGQGTRLEIK
# B3: antibody 329 (antibody, V domains shown)
# VH: EVQLVESGGGLVQPGGSLRLSCAASGFTFSSYWMHWVRQAPGKGLVWVSRINSDGSSTSYADSVKGRFTISRDNAKNTLYLQMNSLRAEDTAVYYCAREGIVATITLDYWGQGTLVTVSS
# VL: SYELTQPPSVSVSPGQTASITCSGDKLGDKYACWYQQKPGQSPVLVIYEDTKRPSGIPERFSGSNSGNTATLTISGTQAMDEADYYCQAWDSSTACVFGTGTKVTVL
# B4: antibody 324 (antibody, V domains shown)
# VH: QVQLQESGPGLVKPSGTLSLTCAVSGGSISSSNWWSWVRQPPGKGLEWIGEIYHSGSTNYNPSLKSRVTISVDNSKNQFSLKLSSVTAADTAVYYCARESVAAAGISYYYYGMDVWGQGTTVTVSS
# VL: EIVLTQSPGTLSLSPGERATLSCRASQSVSGRYLAWYQQKPGQAPRLLIYGASSRATGIPDRFSGSGSGTDFTLTISRLEPEDFAVYYCQHYGSSPGTFGQGTRLEIK
# B5: antibody 317 (antibody, V domains shown)
# VH: QVQLVQSGAEVKKPGASVKVSCKVSGYTLTELSMHWVRQAPGKGLEWMGGFDPEDGETIYAQKFQGRVTMTEDTSTDTAYMELSSLRSEDTAVYYCASSPAAAGTSQYYYYYGMDVWGQGTTVTVSS
# VL: not shown
# B6: antibody 316 (antibody, V domains shown)
# VH: QVHLVESGGGVVQPGRSLRLSCAASGFTLTAYAMHWVRQAPGKRLEWVALISYDGSVKKYADSVKGRITVSGDTSTNTLHLQMNSLRADDTAVYYCVRGGVSGPNSFDLWGQGTMVTVSS
# VL: DVVMTQSPLSLPVTLGQPASMSCRSSQSLEYSDGNTYVNWFHQRPGQSPRRLIYKVSYRDSGVPDRFSGSGSGTDFTLQISRVEAEDVGIYYCMQGTHWPVTFGQGTKVEIK
# B7: antibody 327 (antibody, V domains shown)
# VH: QVQLVESGGGVVQPGRSLRLSCAASGFNLSNYAMHWVRQASGKGLEWVSLISYDGSIKYYTDSVKGRFTVSGDNSKNTLFLQMNSLRPDDSALYYCVRGGVSGPNSFDMWGQGTTVTVSS
# VL: B6 VL with M21I, E30V, H42Q, K55Q, Y58I, D60A, T77A, Q79K
# B8: antibody 323 (antibody, V domains shown)
# VH: QVQLVQSGAEVKKPGASVKVSCKVSGYTLTELSMHWVRQAPGKGLEWMGGFDPEDGETIYAQKFQGRVTMTEDTSTDTAYMELSSLRSEDTAVYYCATSTIFAPGGWFDPWGQGTLVTVSS
# VL: QSALTQPASVSGSPGQSITISCTGTSSDVGSYNLVSWYQQHPGKAPKLMIYEVSKRPSGVSNRFSGSKSGNTASLTISGLQAEDEADYYCCSYAGSTHYVFGTGTKVTVL
# B9: antibody 320 (antibody, V domains shown)
# VH: QVQLVQSGAEVKKPGASVKVSCKASGYTFTSYGISWVRQAPGQGLEWMGWISAYNGNTNYAQKLQGRVTMTTDTSTRTAYMELRSLRSDDTAVYYCARVGCYYDSSGYSCAENFQHWGQGTLVTVSS
# VL: QSVLTQPPSVSGAPGQRVTISCTGSSSNIGAGYDVHWYQQLPGTAPKLLIYGNSNRPSGVPDRFSGSKSGTSASLAITGLQAEDEADYYCQSYDSSLSALFGGGTKLTVL
# Biological target: SARS-CoV-2 full length spike protein, V483A mutant, expressed on the surface of CHO cells (SARS-CoV-2, UniProt P0DTC2 14-1273)
row,Binder,"median fluorescence intensity, fold over isotype control"
1,B1,18.1 fold over isotype
2,B2,10.2 fold over isotype
3,B3,10.6 fold over isotype
4,B4,24.9 fold over isotype
5,B5,10.3 fold over isotype
6,B6,10.4 fold over isotype
7,B7,10.4 fold over isotype
8,B8,19 fold over isotype
9,B9,19.7 fold over isotype
